B1: F1*; the commonest letter at each place (parent)
chain: GAGACCGCAACTGAAAAGTTGTTATCACTTGTCGTAAGACACTTTGGATGGGTTGAAGTTCTGCACGTAGAAGCAAAAGGC

Variants of: B1
Experiment: fraction ligated after 30 min (ligated reads / total reads); higher = more ligase activity
Details: with F1*sub RNA substrate (template-directed ligation), 42 °C
Experimental: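 Chip-synthesised pool of F1* ligase ribozyme variants (all single and double substitutions, single, double and triple deletions in the catalytic core and GAA bulge, plus designed variants) was transcribed with T7 and reacted as a pool with excess substrate F1*sub for 30 min at 42 C in 50 mM EPPS pH 8.5, 25 mM MgCl2. Ligated and unligated bands were separated by PAGE, barcoded by RT and deep sequenced; fraction ligated = ligated reads / total reads per variant, relative activity = FL / FL of wild type (0.826). Sequences are the DNA template of the ribozyme.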

Row | Variant | fraction ligated
1 | GAGACCGCAACTGAAAAGTTGTTATTACTTGTCGTAAGACACTTGGGATGGGTTGAAGTTCTGCACGTAGAAGCAAAAGGC | 0.28
2 | GAGACCGCAACTGAAAAGTTGTTATTACTTGTCGTAAGACACTTAGGATGGGTTGAAGTTCTGCACGTAGAAGCAAAAGGC | 0.779
3 | GAGACCGCAACTGAAAAGTTGTTATTACTTGTCGTAAGACACTTCGGATGGGTTGAAGTTCTGCACGTAGAAGCAAAAGGC | 0.524
4 | GAGACCGCAACTGAAAAGTTGTTATTACTTGTCGTAAGACACTTTGGATGGGTTAAAGTTCTGCACGTAGAAGCAAAAGGC | 0.811
5 | GAGACCGCAACTGAAAAGTTGTTATTACTTGTCGTAAGACACTTTGGATGGGTTTAAGTTCTGCACGTAGAAGCAAAAGGC | 0.815
6 | GAGACCGCAACTGAAAAGTTGTTATTACTTGTCGTAAGACACTTTGGATGGGTTCAAGTTCTGCACGTAGAAGCAAAAGGC | 0.3
7 | GAGACCGCAACTGAAAAGTTGTTATTACTTGTCGTAAGAAACTTTGGATGGGTTGAAGTTCTGCACGTAGAAGCAAAAGGC | 0.797
8 | GAGACCGCAACTGAAAAGTTGTTATTACTTGTCGTAAGAGACTTTGGATGGGTTGAAGTTCTGCACGTAGAAGCAAAAGGC | 0.817
9 | GAGACCGCAACTGAAAAGTTGTTATTACTTGTCGTAAGATACTTTGGATGGGTTGAAGTTCTGCACGTAGAAGCAAAAGGC | 0.833
10 | GAGACCGCAACTGAAAAGTTGTTATTACTTGTCGTAAGACACTTTTGATGGGTTGAAGTTCTGCACGTAGAAGCAAAAGGC | 0.758
11 | GAGACCGCAACTGAAAAGTTGTTATTACTTGTCGTAAGACACTTTCGATGGGTTGAAGTTCTGCACGTAGAAGCAAAAGGC | 0.81
12 | GAGACCGCAACTGAAAAGTTGTTATTACTTGTCGTAAGACACTTTAGATGGGTTGAAGTTCTGCACGTAGAAGCAAAAGGC | 0.835
13 | GAGACCGCAACTGAAAAGTTGTTATTACTTGTCGTAAGACACTTTGGATGGGTTGATGTTCTGCACGTAGAAGCAAAAGGC | 0.852
14 | GAGACCGCAACTGAAAAGTTGTTATTACTTGTCGTAAGACACTTTGGATGGGTTGACGTTCTGCACGTAGAAGCAAAAGGC | 0.84
15 | GAGACCGCAACTGAAAAGTTGTTATTACTTGTCGTAAGACACTTTGGATGGGTTGAGGTTCTGCACGTAGAAGCAAAAGGC | 0.86
16 | GAGACCGCAACTGAAAAGTTGTTATTATTTGTCGTAAGACACTTTGGATGGGTTGAAGTTCTGCACGTAGAAGCAAAAGGC | 0.733
17 | GAGACCGCAACTGAAAAGTTGTTATTAGTTGTCGTAAGACACTTTGGATGGGTTGAAGTTCTGCACGTAGAAGCAAAAGGC | 0.768
18 | GAGACCGCAACTGAAAAGTTGTTATTAATTGTCGTAAGACACTTTGGATGGGTTGAAGTTCTGCACGTAGAAGCAAAAGGC | 0.795
19 | GAGACCGCAACTGAAAAGTTGTTATTACTTGTCGTAAGACACTTTGGACGGGTTGAAGTTCTGCACGTAGAAGCAAAAGGC | 0.122
20 | GAGACCGCAACTGAAAAGTTGTTATTACTTGTCGTAAGACACTTTGGAAGGGTTGAAGTTCTGCACGTAGAAGCAAAAGGC | 0.392
21 | GAGACCGCAACTGAAAAGTTGTTATTACTTGTCGTAAGACACTTTGGATTGGTTGAAGTTCTGCACGTAGAAGCAAAAGGC | 0.238
22 | GAGACCGCAACTGAAAAGTTGTTATTACTTGTCGTAAGACACTTTGGATCGGTTGAAGTTCTGCACGTAGAAGCAAAAGGC | 0.0206
23 | GAGACCGCAACTGAAAAGTTGTTATTACTTGTCGTAAGACACTTTGGATAGGTTGAAGTTCTGCACGTAGAAGCAAAAGGC | 0.0828

Row | Variant | fraction ligated
24 | GAGACCGCAACTGAAAAGTTGTTATTACTTGACGTAAGACACTTTGGATGGGTTGAAGTTCTGCACGTAGAAGCAAAAGGC | 0.701
25 | GAGACCGCAACTGAAAAGTTGTTATTACTTGGCGTAAGACACTTTGGATGGGTTGAAGTTCTGCACGTAGAAGCAAAAGGC | 0.801
26 | GAGACCGCAACTGAAAAGTTGTTATTACTTGCCGTAAGACACTTTGGATGGGTTGAAGTTCTGCACGTAGAAGCAAAAGGC | 0.792
27 | GAGACCGCAACTGAAAAGTTGTTATTACTTGTCGGAAGACACTTTGGATGGGTTGAAGTTCTGCACGTAGAAGCAAAAGGC | 0.817
28 | GAGACCGCAACTGAAAAGTTGTTATTACTTGTCGCAAGACACTTTGGATGGGTTGAAGTTCTGCACGTAGAAGCAAAAGGC | 0.792
29 | GAGACCGCAACTGAAAAGTTGTTATTACTTGTCGAAAGACACTTTGGATGGGTTGAAGTTCTGCACGTAGAAGCAAAAGGC | 0.854
30 | GAGACCGCAACTGAAAAGTTGTTATTACTTGTCTTAAGACACTTTGGATGGGTTGAAGTTCTGCACGTAGAAGCAAAAGGC | 0.812
31 | GAGACCGCAACTGAAAAGTTGTTATTACTTGTCCTAAGACACTTTGGATGGGTTGAAGTTCTGCACGTAGAAGCAAAAGGC | 0.855
32 | GAGACCGCAACTGAAAAGTTGTTATTACTTGTCATAAGACACTTTGGATGGGTTGAAGTTCTGCACGTAGAAGCAAAAGGC | 0.832
33 | GAGACCGCAACTGAAAAGTTGTTATTACTCGTCGTAAGACACTTTGGATGGGTTGAAGTTCTGCACGTAGAAGCAAAAGGC | 0.839
34 | GAGACCGCAACTGAAAAGTTGTTATTACTAGTCGTAAGACACTTTGGATGGGTTGAAGTTCTGCACGTAGAAGCAAAAGGC | 0.832
35 | GAGACCGCAACTGAAAAGTTGTTATTACTGGTCGTAAGACACTTTGGATGGGTTGAAGTTCTGCACGTAGAAGCAAAAGGC | 0.861
36 | GAGACCGCAACTGAAAAGTTGTTATTACTTGTCGTAATACACTTTGGATGGGTTGAAGTTCTGCACGTAGAAGCAAAAGGC | 0.478
37 | GAGACCGCAACTGAAAAGTTGTTATTACTTGTCGTAAAACACTTTGGATGGGTTGAAGTTCTGCACGTAGAAGCAAAAGGC | 0.823
38 | GAGACCGCAACTGAAAAGTTGTTATTACTTGTCGTAACACACTTTGGATGGGTTGAAGTTCTGCACGTAGAAGCAAAAGGC | 0.81
39 | GAGACCGCAACTGAAAAGTTGTTATTACTTGTCGTAAGACACTTTGAATGGGTTGAAGTTCTGCACGTAGAAGCAAAAGGC | 0.843
40 | GAGACCGCAACTGAAAAGTTGTTATTACTTGTCGTAAGACACTTTGCATGGGTTGAAGTTCTGCACGTAGAAGCAAAAGGC | 0.0296
41 | GAGACCGCAACTGAAAAGTTGTTATTACTTGTCGTAAGACACTTTGTATGGGTTGAAGTTCTGCACGTAGAAGCAAAAGGC | 0.182
42 | GAGACCGCAACTGAAAAGTTGTTATTACTTGTCGTAAGACACTTTGGATGGGTTGCAGTTCTGCACGTAGAAGCAAAAGGC | 0.29
43 | GAGACCGCAACTGAAAAGTTGTTATTACTTGTCGTAAGACACTTTGGATGGGTTGGAGTTCTGCACGTAGAAGCAAAAGGC | 0.768
44 | GAGACCGCAACTGAAAAGTTGTTATTACTTGTCGTAAGACACTTTGGATGGGTTGTAGTTCTGCACGTAGAAGCAAAAGGC | 0.867
45 | GAGACCGCAACTGAAAAGTTGTTATTACTTGTCGTAAGACCCTTTGGATGGGTTGAAGTTCTGCACGTAGAAGCAAAAGGC | 0.771
46 | GAGACCGCAACTGAAAAGTTGTTATTACTTGTCGTAAGACGCTTTGGATGGGTTGAAGTTCTGCACGTAGAAGCAAAAGGC | 0.813

Row | Variant | fraction ligated
47 | GAGACCGCAACTGAAAAGTTGTTATTACTTGTCGTAAGACTCTTTGGATGGGTTGAAGTTCTGCACGTAGAAGCAAAAGGC | 0.796
48 | GAGACCGCAACTGAAAAGTTGTTATTACGTGTCGTAAGACACTTTGGATGGGTTGAAGTTCTGCACGTAGAAGCAAAAGGC | 0.816
49 | GAGACCGCAACTGAAAAGTTGTTATTACCTGTCGTAAGACACTTTGGATGGGTTGAAGTTCTGCACGTAGAAGCAAAAGGC | 0.848
50 | GAGACCGCAACTGAAAAGTTGTTATTACATGTCGTAAGACACTTTGGATGGGTTGAAGTTCTGCACGTAGAAGCAAAAGGC | 0.845
51 | GAGACCGCAACTGAAAAGTTGTTATTACTTGTCGTAAGACACTTTGGGTGGGTTGAAGTTCTGCACGTAGAAGCAAAAGGC | 0.756
52 | GAGACCGCAACTGAAAAGTTGTTATTACTTGTCGTAAGACACTTTGGCTGGGTTGAAGTTCTGCACGTAGAAGCAAAAGGC | 0.418
53 | GAGACCGCAACTGAAAAGTTGTTATTACTTGTCGTAAGACACTTTGGTTGGGTTGAAGTTCTGCACGTAGAAGCAAAAGGC | 0.0105
54 | GAGACCGCAACTGAAAAGTTGTTATTACTTCTCGTAAGACACTTTGGATGGGTTGAAGTTCTGCACGTAGAAGCAAAAGGC | 0.408
55 | GAGACCGCAACTGAAAAGTTGTTATTACTTTTCGTAAGACACTTTGGATGGGTTGAAGTTCTGCACGTAGAAGCAAAAGGC | 0.585
56 | GAGACCGCAACTGAAAAGTTGTTATTACTTATCGTAAGACACTTTGGATGGGTTGAAGTTCTGCACGTAGAAGCAAAAGGC | 0.342
57 | GAGACCGCAACTGAAAAGTTGTTATTACTTGTCGTAAGACAGTTTGGATGGGTTGAAGTTCTGCACGTAGAAGCAAAAGGC | 0.795
58 | GAGACCGCAACTGAAAAGTTGTTATTACTTGTCGTAAGACAATTTGGATGGGTTGAAGTTCTGCACGTAGAAGCAAAAGGC | 0.804
59 | GAGACCGCAACTGAAAAGTTGTTATTACTTGTCGTAAGACATTTTGGATGGGTTGAAGTTCTGCACGTAGAAGCAAAAGGC | 0.837
60 | GAGACCGCAACTGAAAAGTTGTTATTACTTGTCGTAAGACACTGTGGATGGGTTGAAGTTCTGCACGTAGAAGCAAAAGGC | 0.836
61 | GAGACCGCAACTGAAAAGTTGTTATTACTTGTCGTAAGACACTCTGGATGGGTTGAAGTTCTGCACGTAGAAGCAAAAGGC | 0.822
62 | GAGACCGCAACTGAAAAGTTGTTATTACTTGTCGTAAGACACTATGGATGGGTTGAAGTTCTGCACGTAGAAGCAAAAGGC | 0.845
63 | GAGACCGCAACTGAAAAGTTGTTATTACTTGTCGTAAGACACATTGGATGGGTTGAAGTTCTGCACGTAGAAGCAAAAGGC | 0.827
64 | GAGACCGCAACTGAAAAGTTGTTATTACTTGTCGTAAGACACCTTGGATGGGTTGAAGTTCTGCACGTAGAAGCAAAAGGC | 0.788
65 | GAGACCGCAACTGAAAAGTTGTTATTACTTGTCGTAAGACACGTTGGATGGGTTGAAGTTCTGCACGTAGAAGCAAAAGGC | 0.79
66 | GAGACCGCAACTGAAAAGTTGTTATTACTTGTGGTAAGACACTTTGGATGGGTTGAAGTTCTGCACGTAGAAGCAAAAGGC | 0.819
67 | GAGACCGCAACTGAAAAGTTGTTATTACTTGTAGTAAGACACTTTGGATGGGTTGAAGTTCTGCACGTAGAAGCAAAAGGC | 0.798
68 | GAGACCGCAACTGAAAAGTTGTTATTACTTGTTGTAAGACACTTTGGATGGGTTGAAGTTCTGCACGTAGAAGCAAAAGGC | 0.829

Source: the supplement of paper PMC6755084
